The nature of the data set: self-splicing fitness, log relative to wild type (ln ratio); higher = more splicing; Tetrahymena group I intron in knt gene, E. coli kanamycin selection, DiMSum; sequences stand for … in CUCUCU…GGAGGGAAAAGUUAUCAGGCAUGCACCUGGUAGCUAGUCUUUAAACCAAUAGAUUGCAUCGGUUUAAAAGGCAAGACCGUCAAAUUGCGGGAAAGGGGUCAACAGCCGUUCAGUACCAAGUCUCAGGGGAAACUUUGAGAUGGCCUUGCAAAGGGUAUGGUAAUAAGCUGACGGACAUGGUCCUAACCACGCAGCCAAGUCCUAAGUCAACAGAUCUUCUGUUGAUAUGGAUGCAGUUCACAGACUAAAUGUCGGUCGGGGAAGAUGUAUUCUUCUCAUAAGAUAUAGUCGGACCUCUCCUUAAUGGGAGCUAGCGGAUGAAGUGAUGCAACACUGGAGCCGCUGGGAACUAAUUUGUAUGCGAAAGUAUAUUGAUUAGUUUUGGAGUACUCGUGGUCG
Put shortly: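 Fitness was computed with DiMSum as the error-weighted combination of replicate fold changes, kanamycin versus none, each normalised to wild type. The library randomised all eight intron nucleotides of the P1ex region, with the intron placed in the knt kanamycin-resistance gene on pET-22b(+) in E. coli BL21(DE3). Six replicate transformations were grown overnight at 37°C or 30°C on LB agar with or without 25 μg/mL kanamycin, plus 100 μg/mL carbenicillin, 50 μM IPTG and 0.2% rhamnose. Pooled colonies were amplicon-sequenced on an Illumina HiSeq 2500.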

± gives the uncertainty stated by the source.

Take GCAAAGCAAUAUUACGCUUU: the “self-splicing fitness (ln)” value (30 °C) was -3.49 ± 0.15 and the “self-splicing fitness (ln)” value (37 °C) is -3.27 ± 0.22.

For AAGCAGCAAUAUUACGUACG, the “self-splicing fitness (ln)” value (30 °C) is -2.18 ± 0.12 and the “self-splicing fitness (ln)” value (37 °C) was -0.645 ± 0.13.

On to UCCUAGCAAUAUUACGCAGU, for which the “self-splicing fitness (ln)” value was -3.03 ± 0.15 (30 °C) and -2.54 ± 0.2 (37 °C).

On to UAUGAGCAAUAUUACGUCUC, for which, under “30 °C”, the “self-splicing fitness (ln)” value is -2.45 ± 0.25.

For the sequence AGGCAGCAAUAUUACGCUGC, under “37 °C”, the “self-splicing fitness (ln)” value is -2.5 ± 0.38.

UGUGAGCAAUAUUACGACCG: the “self-splicing fitness (ln)” value reads like this: (30 °C) -1.22 ± 0.19; (37 °C) -0.38 ± 0.21.

Take UUCGAGCAAUAUUACGUGUA: the “self-splicing fitness (ln)” value reads like this: (30 °C) -2.65 ± 0.09; (37 °C) -1.86 ± 0.095.

GCCCAGCAAUAUUACGCACG: for the setting “30 °C”, the “self-splicing fitness (ln)” value is -3.39 ± 0.2.

Take GAAGAGCAAUAUUACGCACC: the “self-splicing fitness (ln)” value (30 °C) is -0.341 ± 0.2 and the “self-splicing fitness (ln)” value (37 °C) is 0.037 ± 0.22.

Consider UAGAAGCAAUAUUACGUACU, for which the “self-splicing fitness (ln)” value (30 °C) was -1.22 ± 0.1 and the “self-splicing fitness (ln)” value (37 °C) was -0.355 ± 0.14.

Regarding GACUAGCAAUAUUACGAUAG, the “self-splicing fitness (ln)” value runs as follows: (30 °C) -2.95 ± 0.16; (37 °C) -1.17 ± 0.12.

For the sequence AGGCAGCAAUAUUACGUCCG, the “self-splicing fitness (ln)” value runs as follows: (30 °C) -1.16 ± 0.12; (37 °C) -0.519 ± 0.13.

For the sequence AGACAGCAAUAUUACGCGCG, the “self-splicing fitness (ln)” value is -0.587 ± 0.074 (30 °C) and 0.222 ± 0.096 (37 °C).

Consider AUGGAGCAAUAUUACGUAGA, for which, for the setting “37 °C”, the “self-splicing fitness (ln)” value is -2.39 ± 0.42.

In the case of AUUAAGCAAUAUUACGUUGU, the “self-splicing fitness (ln)” value reads like this: (30 °C) -1.98 ± 0.21; (37 °C) -2.8 ± 0.32.

In the case of AUAUAGCAAUAUUACGCGGG, the “self-splicing fitness (ln)” value reads like this: (30 °C) -2.72 ± 0.38; (37 °C) -1.33 ± 0.22.

On to ACCUAGCAAUAUUACGGGAA, for which the “self-splicing fitness (ln)” value runs as follows: (30 °C) -1.62 ± 0.11; (37 °C) -0.345 ± 0.11.

For UCCGAGCAAUAUUACGCUAU, the “self-splicing fitness (ln)” value by setting is: (30 °C) -2.09 ± 0.24; (37 °C) -3.2 ± 0.33.

For the sequence AAUCAGCAAUAUUACGACAU, the “self-splicing fitness (ln)” value (30 °C) came out at 0.114 ± 0.011 and the “self-splicing fitness (ln)” value (37 °C) is 0.208 ± 0.032.

As for GAUGAGCAAUAUUACGACUU, the “self-splicing fitness (ln)” value (30 °C) was -0.252 ± 0.071 and the “self-splicing fitness (ln)” value (37 °C) came to 0.118 ± 0.089.

Take CGCUAGCAAUAUUACGGGCC: the “self-splicing fitness (ln)” value was -2.29 ± 0.17 (30 °C) and -1.92 ± 0.19 (37 °C).

For the sequence CAGCAGCAAUAUUACGGUCA, the “self-splicing fitness (ln)” value (30 °C) was -2.45 ± 0.17 and the “self-splicing fitness (ln)” value (37 °C) was -1.22 ± 0.11.

Take UAUCAGCAAUAUUACGCGUA: the “self-splicing fitness (ln)” value (30 °C) was -0.493 ± 0.1 and the “self-splicing fitness (ln)” value (37 °C) came out at 0.0959 ± 0.12.

On to CGGGAGCAAUAUUACGGACG, for which the “self-splicing fitness (ln)” value runs as follows: (30 °C) -2 ± 0.14; (37 °C) -2.14 ± 0.23.

As to AGCGAGCAAUAUUACGGCUC, the “self-splicing fitness (ln)” value is, setting by setting: (30 °C) -3.06 ± 0.34; (37 °C) -2.06 ± 0.45.

For the sequence UACCAGCAAUAUUACGCACA, the “self-splicing fitness (ln)” value is, setting by setting: (30 °C) -0.477 ± 0.088; (37 °C) 0.0379 ± 0.092.

Regarding UGGUAGCAAUAUUACGUAAG, the “self-splicing fitness (ln)” value is -1.53 ± 0.11 (30 °C) and -0.776 ± 0.16 (37 °C).

Regarding UCGGAGCAAUAUUACGUUGA, the “self-splicing fitness (ln)” value was -2.58 ± 0.25 (30 °C) and -1.22 ± 0.16 (37 °C).

In the case of UUGCAGCAAUAUUACGCCCA, the “self-splicing fitness (ln)” value (30 °C) is -1.28 ± 0.21 and the “self-splicing fitness (ln)” value (37 °C) is -0.155 ± 0.25.

GUGAAGCAAUAUUACGUCAU: the “self-splicing fitness (ln)” value runs as follows: (30 °C) -3.04 ± 0.2; (37 °C) -2.68 ± 0.28.

As to AGAGAGCAAUAUUACGAGAG, the “self-splicing fitness (ln)” value (37 °C) was -2.3 ± 0.44.

Consider GCACAGCAAUAUUACGCGCA, for which the “self-splicing fitness (ln)” value runs as follows: (30 °C) -0.993 ± 0.099; (37 °C) -0.327 ± 0.093.

Take CGUAAGCAAUAUUACGGGAG: the “self-splicing fitness (ln)” value (30 °C) was -2.21 ± 0.22 and the “self-splicing fitness (ln)” value (37 °C) was -2.81 ± 0.36.

On to AUCCAGCAAUAUUACGGUCG, for which the “self-splicing fitness (ln)” value is, setting by setting: (30 °C) -0.645 ± 0.058; (37 °C) 0.12 ± 0.089.

AAUUAGCAAUAUUACGCCCC: the “self-splicing fitness (ln)” value is, setting by setting: (30 °C) -0.573 ± 0.33; (37 °C) -0.798 ± 0.49.

In the case of CUACAGCAAUAUUACGAUAU, the “self-splicing fitness (ln)” value (30 °C) is -3.89 ± 0.22 and the “self-splicing fitness (ln)” value (37 °C) was -1.4 ± 0.22.

As for GCUUAGCAAUAUUACGCGCU, the “self-splicing fitness (ln)” value (30 °C) was -2.33 ± 0.16 and the “self-splicing fitness (ln)” value (37 °C) was -2.47 ± 0.21.

Turning to AAGAAGCAAUAUUACGUCUC, the “self-splicing fitness (ln)” value is, setting by setting: (30 °C) -2.04 ± 0.12; (37 °C) -1.69 ± 0.16.

Consider CCAUAGCAAUAUUACGCGGU, for which the “self-splicing fitness (ln)” value is -3.9 ± 0.23 (30 °C) and -2.5 ± 0.26 (37 °C).

Values taken from the supplement of paper PMC7877785.
